Laboratory results from PMC6232118.

Columns and labels:
Test in all cases: EMSA
Details in all cases: pH 7.9, temperature not given, scale: slope of unbound DNA vs protein
[1] = test system: FlhD (E. coli);FlhC (E. coli) (Escherichia coli;Escherichia coli)
[2] = test system: FlhD (E. coli);FlhC (S. enterica) (Escherichia coli;Salmonella enterica sv Typhimurium)
[3] = test system: FlhD (S. enterica);FlhC (E. coli) (Salmonella enterica sv Typhimurium;Escherichia coli)
[4] = test system: FlhD (S. enterica);FlhC (S. enterica) (Salmonella enterica sv Typhimurium;Salmonella enterica sv Typhimurium)

Question: PflgAB promoter PCR product was tested. Which binding signal [1] did it give?
Answer: -1570

Question: What about the binding signal [2] of the same substance?
Answer: -784

Question: What about the binding signal [3] of the same substance?
Answer: -1120

Question: And the binding signal [4]?
Answer: -906
